Experimental data as given in doi:10.1101/2024.05.14.591795.

Target: BCG3185c (Mycobacterium tuberculosis (title); called a Bacillus Calmette-Guérin (BCG) protein)
Assay: SEC

Question: For BCG3185c (enzyme), which stoichiometry N is on record?
Answer: 3
